The text below walks through data of US20210070882A1.

The assay deals with human CD19 (human) (UniProt P15391). Nature of the assay: cell-based or functional assay.
Sequence of human CD19 (human) (P15391 20-556): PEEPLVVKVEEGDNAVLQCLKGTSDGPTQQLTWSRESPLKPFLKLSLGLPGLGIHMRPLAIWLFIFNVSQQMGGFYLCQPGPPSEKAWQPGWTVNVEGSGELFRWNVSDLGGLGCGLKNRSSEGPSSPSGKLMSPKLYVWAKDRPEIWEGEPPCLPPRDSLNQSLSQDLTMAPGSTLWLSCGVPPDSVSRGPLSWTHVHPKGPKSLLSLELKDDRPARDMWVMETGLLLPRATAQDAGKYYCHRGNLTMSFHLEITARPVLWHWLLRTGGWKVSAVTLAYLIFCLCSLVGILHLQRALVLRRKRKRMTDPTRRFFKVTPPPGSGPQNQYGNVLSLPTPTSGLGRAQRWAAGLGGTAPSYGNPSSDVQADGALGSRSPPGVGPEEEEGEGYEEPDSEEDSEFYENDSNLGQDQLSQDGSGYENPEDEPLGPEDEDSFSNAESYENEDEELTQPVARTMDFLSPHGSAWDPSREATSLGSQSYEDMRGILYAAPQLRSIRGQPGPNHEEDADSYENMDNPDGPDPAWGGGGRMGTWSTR

In the case of Blinatumomab (bispecific antibody), the T cell activation EC50 upon Z-138 lysis, CD25/CD4 is 3.7 pM; the T cell activation EC50 upon Z-138 lysis, CD25/CD8 came to 4.5 pM; the T cell activation EC50 upon Z-138 lysis, CD69/CD4 turned out to be 2.3 pM; the T cell activation EC50 upon Z-138 lysis, CD69/CD8 worked out at 2.4 pM. Besides, the Tumor cell lysis Z-138 cells (21 h), EC50 is 0.26 ng/mL and the Tumor cell lysis Z-138 cells (21 h), EC50 (pM) turned out to be 4.8 pM.
